Source: PMC4417169, “Significance of ligand interactions involving Hop2-Mnd1 and the RAD51 and DMC1 recombinases in homologous DNA repair and XX ovarian dysgenesis” (Nucleic Acids Research, 2015)

B2: human RAD51 (natural protein, UniProt Q06609 1-339, looked up)
chain: MAMQMQLEANADTSVEEESFGPQPISRLEQCGINANDVKKLEEAGFHTVEAVAYAPKKELINIKGISEAKADKILAEAAKLVPMGFTTATEFHQRRSEIIQITTGSKELDKLLQGGIETGSITEMFGEFRTGKTQICHTLAVTCQLPIDRGGGEGKAMYIDTEGTFRPERLLAVAERYGLSGSDVLDNVAYARAFNTDHQTQLLYQASAMMVESRYALLIVDSATALYRTDYSGRGELSARQMHLARFLRMLLRLADEFGVAVVITNQVVAQVDGAAMFAADPKKPIGGNIIAHASTTRLYLRKGRGETRICKIYDSPCLPEAEAMFAINADGVGDAKD
notes: RAD51, human; source: E. coli, purified

Experiments:
Details in all cases: both partners purified
human RAD51 [1] = biological target: B2; assay: pull-down; affinity pulldown of RAD51 with truncation mutants of Hop2-Mnd1 (Supplementary Figure S3b, c); resin and tag not told
Hop2-Mnd1 (KYK+RYY) = biological target: T1, Hop2-Mnd1 (KYK+RYY) (mouse, UniProt O35047 1-217; Q8K396 1-205, K63A | Y65A | K67A | R64A | Y70A | Y71A); assay: pull-down; affinity pulldown of RAD51 with the DNA binding mutants of Hop2-Mnd1; only summarized in Table 1; resin and tag not told
T1 construct: Hop2, mouse; Mnd1, mouse; also called Hop2-KYK-Mnd1-RYY; Hop2-KYK/Mnd1-RYY; source: E. coli, purified
T1 sequence (looked up) 1: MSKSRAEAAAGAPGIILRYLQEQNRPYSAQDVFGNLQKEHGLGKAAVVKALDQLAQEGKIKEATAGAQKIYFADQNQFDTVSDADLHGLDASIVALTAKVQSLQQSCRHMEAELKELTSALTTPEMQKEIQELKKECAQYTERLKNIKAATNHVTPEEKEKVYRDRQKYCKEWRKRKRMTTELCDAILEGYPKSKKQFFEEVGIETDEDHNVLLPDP
T1 sequence (looked up) 2: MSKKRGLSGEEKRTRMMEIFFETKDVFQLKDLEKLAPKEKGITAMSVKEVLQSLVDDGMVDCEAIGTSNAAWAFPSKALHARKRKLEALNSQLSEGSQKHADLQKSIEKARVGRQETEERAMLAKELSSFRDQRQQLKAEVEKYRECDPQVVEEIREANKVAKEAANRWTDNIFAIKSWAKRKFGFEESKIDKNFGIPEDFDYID

Hop2 (R176A)-Mnd1 = biological target: T2, Hop2 (R176A)-Mnd1 (mouse, UniProt O35047 1-217; Q8K396 1-205, R176A); assay: as above
T2 construct: Hop2, mouse; Mnd1, mouse; source: E. coli, purified
T2 sequence (looked up) 1: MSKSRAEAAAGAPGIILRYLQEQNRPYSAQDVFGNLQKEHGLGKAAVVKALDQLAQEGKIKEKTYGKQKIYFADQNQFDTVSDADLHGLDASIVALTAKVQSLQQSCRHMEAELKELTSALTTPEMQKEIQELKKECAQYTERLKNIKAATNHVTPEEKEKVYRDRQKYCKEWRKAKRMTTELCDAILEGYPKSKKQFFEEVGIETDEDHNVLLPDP
T2 sequence (looked up) 2: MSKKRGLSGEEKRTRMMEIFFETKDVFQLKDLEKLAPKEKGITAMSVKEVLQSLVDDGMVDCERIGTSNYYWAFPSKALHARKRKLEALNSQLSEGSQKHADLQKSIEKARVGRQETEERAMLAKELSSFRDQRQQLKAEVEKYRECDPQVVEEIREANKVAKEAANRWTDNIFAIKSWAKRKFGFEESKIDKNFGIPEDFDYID

[2] = biological target: T3, Hop2-Mnd1 (R64A/Y70A/Y71A) (mouse, UniProt O35047 1-217; Q8K396 1-205, R64A | Y70A | Y71A); assay: as above
T3 construct: Hop2, mouse; Mnd1, mouse; also called Hop2-Mnd1-RYY; source: E. coli, purified
T3 sequence (looked up) 1: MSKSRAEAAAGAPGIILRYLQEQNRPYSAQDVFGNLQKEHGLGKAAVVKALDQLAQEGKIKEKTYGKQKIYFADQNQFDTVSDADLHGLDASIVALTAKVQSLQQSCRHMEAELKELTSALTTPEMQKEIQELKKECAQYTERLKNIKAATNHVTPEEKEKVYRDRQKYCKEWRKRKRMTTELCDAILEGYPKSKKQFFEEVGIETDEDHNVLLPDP
T3 sequence (looked up) 2: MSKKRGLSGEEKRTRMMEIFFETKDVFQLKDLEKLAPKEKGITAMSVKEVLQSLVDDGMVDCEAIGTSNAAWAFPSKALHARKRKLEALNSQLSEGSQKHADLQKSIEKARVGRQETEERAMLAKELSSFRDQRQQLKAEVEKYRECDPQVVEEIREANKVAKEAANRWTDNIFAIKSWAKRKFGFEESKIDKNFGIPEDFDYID

[3] = biological target: T4, Hop2 (K63A/Y65A/K67A)-Mnd1 (mouse, UniProt O35047 1-217; Q8K396 1-205, K63A | Y65A | K67A); assay: as above
T4 construct: Hop2, mouse; Mnd1, mouse; also called Hop2-KYK-Mnd1; source: E. coli, purified
T4 sequence (looked up) 1: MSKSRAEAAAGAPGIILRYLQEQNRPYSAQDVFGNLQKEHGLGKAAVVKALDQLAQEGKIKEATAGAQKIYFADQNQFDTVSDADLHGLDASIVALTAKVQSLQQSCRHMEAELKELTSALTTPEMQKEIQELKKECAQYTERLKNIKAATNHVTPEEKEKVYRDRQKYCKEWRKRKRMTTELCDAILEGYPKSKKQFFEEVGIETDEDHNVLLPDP
T4 sequence (looked up) 2: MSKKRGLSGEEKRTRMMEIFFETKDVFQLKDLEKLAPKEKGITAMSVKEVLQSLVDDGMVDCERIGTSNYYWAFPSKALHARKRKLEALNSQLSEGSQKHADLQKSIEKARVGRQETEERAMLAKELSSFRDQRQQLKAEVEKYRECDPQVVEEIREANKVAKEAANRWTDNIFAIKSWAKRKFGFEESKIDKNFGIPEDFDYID

[4] = biological target: T5, Hop2 (G203N)-Mnd1, MBP-tagged (mouse, UniProt O35047 1-217; Q8K396 1-205, G203N); assay: pull-down; amylose resin captures MBP-tagged Hop2-Mnd1 or mutant incubated with RAD51 or DMC1; buffer A without imidazole; 4 C; SDS-PAGE, Coomassie
T5 construct: Hop2, mouse; Mnd1, mouse; also called the G203N mutant; source: E. coli, purified; not shown: MBP, N-terminal, kept
T5 sequence (looked up) 1: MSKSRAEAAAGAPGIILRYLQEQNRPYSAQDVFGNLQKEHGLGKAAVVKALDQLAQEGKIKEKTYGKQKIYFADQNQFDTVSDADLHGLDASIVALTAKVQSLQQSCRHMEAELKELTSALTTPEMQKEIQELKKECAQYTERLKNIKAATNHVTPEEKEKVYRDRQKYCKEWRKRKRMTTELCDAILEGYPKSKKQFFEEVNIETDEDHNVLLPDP
T5 sequence (looked up) 2: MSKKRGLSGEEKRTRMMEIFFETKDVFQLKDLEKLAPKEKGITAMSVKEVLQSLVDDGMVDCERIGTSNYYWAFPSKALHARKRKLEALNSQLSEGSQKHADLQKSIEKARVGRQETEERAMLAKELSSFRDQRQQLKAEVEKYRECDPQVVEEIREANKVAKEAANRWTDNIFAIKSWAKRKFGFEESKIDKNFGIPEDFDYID

human RAD51 [5] = biological target: B2; assay: pull-down; Ni2+-NTA resin captures (His)6-Hop2-Mnd1 or (His)6-Mnd1 (5 uM) incubated with RAD51 (8 uM); buffer A (25 mM Tris-HCl pH 7.5, 10% glycerol, 0.5 mM EDTA, 0.01% Igepal, 10 mM imidazole), 50-250 mM KCl, with or without 2 mM MgCl2 and 2 mM ATP (or other nucleotides); 4 C; SDS-PAGE, Coomassie

B1: Hop2-Mnd1^100-205 (complex, mouse)
chain 1: MSKSRAEAAAGAPGIILRYLQEQNRPYSAQDVFGNLQKEHGLGKAAVVKALDQLAQEGKIKEKTYGKQKIYFADQNQFDTVSDADLHGLDASIVALTAKVQSLQQSCRHMEAELKELTSALTTPEMQKEIQELKKECAQYTERLKNIKAATNHVTPEEKEKVYRDRQKYCKEWRKRKRMTTELCDAILEGYPKSKKQFFEEVGIETDEDHNVLLPDP
chain 2: HADLQKSIEKARVGRQETEERAMLAKELSSFRDQRQQLKAEVEKYRECDPQVVEEIREANKVAKEAANRWTDNIFAIKSWAKRKFGFEESKIDKNFGIPEDFDYID
notes: Hop2, mouse; Mnd1, mouse, residues 100-205; source: E. coli, purified
B1: binds (human RAD51 [1]).

B2: binds (Hop2-Mnd1 (KYK+RYY)); binds (Hop2 (R176A)-Mnd1); binds [2]. B2: binds [3]; binds [4].

B3: (His)6-tagged Mnd1 (natural protein, mouse, UniProt Q8K396 1-205, looked up)
chain: MSKKRGLSGEEKRTRMMEIFFETKDVFQLKDLEKLAPKEKGITAMSVKEVLQSLVDDGMVDCERIGTSNYYWAFPSKALHARKRKLEALNSQLSEGSQKHADLQKSIEKARVGRQETEERAMLAKELSSFRDQRQQLKAEVEKYRECDPQVVEEIREANKVAKEAANRWTDNIFAIKSWAKRKFGFEESKIDKNFGIPEDFDYID
notes: Mnd1, mouse, without Hop2; also called purified Mnd1 alone; source: purified
B3: binds (human RAD51 [5]).

B4: Hop2^126-217-Mnd1 (complex, mouse)
chain 1: MQKEIQELKKECAQYTERLKNIKAATNHVTPEEKEKVYRDRQKYCKEWRKRKRMTTELCDAILEGYPKSKKQFFEEVGIETDEDHNVLLPDP
chain 2: MSKKRGLSGEEKRTRMMEIFFETKDVFQLKDLEKLAPKEKGITAMSVKEVLQSLVDDGMVDCERIGTSNYYWAFPSKALHARKRKLEALNSQLSEGSQKHADLQKSIEKARVGRQETEERAMLAKELSSFRDQRQQLKAEVEKYRECDPQVVEEIREANKVAKEAANRWTDNIFAIKSWAKRKFGFEESKIDKNFGIPEDFDYID
notes: Hop2, mouse, residues 126-217; Mnd1, mouse; source: E. coli, purified
B4: binds (human RAD51 [1]).

B5: human DMC1 (natural protein, UniProt Q14565 1-340, looked up)
chain: MKEDQVVAEEPGFQDEEESLFQDIDLLQKHGINVADIKKLKSVGICTIKGIQMTTRRALCNVKGLSEAKVDKIKEAANKLIEPGFLTAFEYSEKRKMVFHITTGSQEFDKLLGGGIESMAITEAFGEFRTGKTQLSHTLCVTAQLPGAGGYPGGKIIFIDTENTFRPDRLRDIADRFNVDHDAVLDNVLYARAYTSEHQMELLDYVAAKFHEEAGIFKLLIIDSIMALFRVDFSGRGELAERQQKLAQMLSRLQKISEEYNVAVFVTNQMTADPGATMTFQADPKKPIGGHILAHASTTRISLRKGRGELRIAKIYDSPEMPENEATFAITAGGIGDAKE
notes: DMC1, human; source: insect cells infected with a recombinant DMC1 baculovirus, purified
B5: binds [4].
